# In US5977435A, “Plant phosphatases” (Performance Plants, Inc., priority 1997, dated 1999):
# Where “and” joins values, the source holds several entries; their conditions need not be identical. Equal entries are not always repeated.
# T1: potato phosphatase (Solanum tuberosum, UniProt Q6J5M8)
# T1 sequence (Q6J5M8 with tags, fused parts or gaps V118I/E238V/S277N/V282G/E319A/A394T/S415A/T416I/D418E/I426Y/H428S/N437A): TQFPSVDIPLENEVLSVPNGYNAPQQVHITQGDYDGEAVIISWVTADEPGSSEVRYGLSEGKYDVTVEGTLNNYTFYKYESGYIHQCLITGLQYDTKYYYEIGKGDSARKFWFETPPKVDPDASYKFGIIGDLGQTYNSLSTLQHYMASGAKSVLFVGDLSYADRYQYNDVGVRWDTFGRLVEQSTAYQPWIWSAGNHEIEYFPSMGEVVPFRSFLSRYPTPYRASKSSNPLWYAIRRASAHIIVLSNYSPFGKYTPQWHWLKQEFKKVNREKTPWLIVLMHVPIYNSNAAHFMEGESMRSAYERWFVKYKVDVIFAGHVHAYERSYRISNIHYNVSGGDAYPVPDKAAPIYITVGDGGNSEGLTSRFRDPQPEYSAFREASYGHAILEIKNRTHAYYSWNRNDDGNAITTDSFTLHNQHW
# Legend:
# [1] = target: potato tuber phosphatase (PTAP) (potato (Solanum tuberosum L. cv. Chiefton))
# [2] = target: egg yolk storage phosphoprotein, phosvitin (Gallus gallus (Chicken)) (UniProt P02845)
# [3] = tested on: P-Tyr phosphatase from Escherichia coli; settings: E. coli P-Tyr phosphatase; cited from earlier work
# potato phosphatase [4] = target: T1, potato phosphatase; assay: Phosphatase assay B, substrate specificity; settings: purified potato phosphatase, assay B, pH 5.8, 25° C
# Procedure: Phosphatase activity was determined using assay B and a wide range of compounds, tested at a total concentration of 5 mM unless otherwise specified.
# (§1) Phosphatase (0.05 units) was incubated in 1.5 mL cuvettes with 0.9 mL of 50 mM MES-NaOH (pH 5.8) containing 4 mM MgCl2 and an alternative substrate (5 mM unless otherwise indicated) for 6 min at 25° C. Reactions were terminated by the sequential addition of 0.1 mL reagent A (3 M H2 SO4 containing 20 mM ammonium molybdate) and […] of 1% (v/v) Triton X-100. Samples were incubated at 25° C. for 20 min and the A660 was determined. To calculate activities, a standard curve over the range of […] Pi was constructed for each set of assays. Assays were performed in triplicate and controls were run for background amounts of Pi present at each substrate concentration by adding reagent A before the enzyme.
# [5] = target: minor 28-kD potato tuber phosphatase isoform; settings: cited from earlier work
# [6] = substrate: O=[N+]([O-])c1ccc(OP(=O)(O)O)cc1; assay: purified protein, by the assay type; settings: other: apparent Km, purified potato phosphatase, assay B; pH 5.8; 25.0 °C
# [7] = substrate: C=C(OP(=O)(O)O)C(=O)O; assay: purified protein, by the assay type; settings: other: apparent Km, purified potato phosphatase, assay B; pH 5.8; 25.0 °C
# [8] = substrate: Nc1ncnc2c1ncn2[C@@H]1O[C@H](COP(=O)(O)OP(=O)(O)OP(=O)(O)O)[C@@H](O)[C@H]1O; assay: purified protein, by the assay type; settings: other: apparent Km, purified potato phosphatase, assay B; pH 5.8; 25.0 °C
# Procedure: (§3) Phosphatase (0.05 units) was incubated in 1.5 mL cuvettes with 0.9 mL of 50 mM MES-NaOH (pH 5.8) containing 4 mM MgCl2 and an alternative substrate (5 mM unless otherwise indicated) for 6 min at 25° C. Reactions were terminated by the sequential addition of 0.1 mL reagent A (3 M H2 SO4 containing 20 mM ammonium molybdate) and 10 ml of 1% (v/v) Triton X-100. Samples were incubated at 25° C. for 20 min and the A660 was determined. To calculate activities, a standard curve over the range of 0.01 to 1.0 mmol Pi was constructed for each set of assays. Assays were performed in triplicate and controls were run for background amounts of Pi present at each substrate concentration by adding reagent A before the enzyme. Hydrolysis was proportional to enzyme concentrations between 0.005 to 0.1 units/mL and remained linear with time for at least 15 min.
# (§4) All kinetic parameters are the means of duplicate determinations performed on two separate preparations of the purified enzyme, and are reproducible to within ±10% SE.
# [9] = substrate: N[C@@H](Cc1ccc(OP(=O)(O)O)cc1)C(=O)O; assay: purified protein, by the assay type; settings: other: apparent Km, purified potato phosphatase, assay B; pH 5.8; 25.0 °C
# Procedure: as §3, §4
# [10] = substrate: NC(COP(=O)(O)O)C(=O)O; assay: purified protein, by the assay type; settings: other: apparent Km, purified potato phosphatase, assay B; pH 5.8; 25.0 °C
# potato phosphatase [11] = target: T1, potato phosphatase; assay: Effect of pH on phosphatase activity (assay A with PEP); format: biochemical; design: mature chain from Thr30, C-terminus not determined; settings: pH/activity profile
# Procedure: Unless otherwise stated all kinetic studies of the potato phosphatase were performed with PEP using assay A (infra).
# All subsequent kinetic studies were carried out at pH 5.8.
# (§2) Assays were initiated by the addition of enzyme preparation. One unit of phosphatase activity is defined as the quantity of enzyme that would catalyze the hydrolysis of 1 […] of substrate/min at 25° C.
# potato phosphatase [12] = target: T1, potato phosphatase; assay: Specific activity of purified potato tuber phosphatase; format: biochemical; design: mature chain from Thr30, C-terminus not determined
# Procedure: As an initial step towards the isolation of plant phosphatase genes, the predominant phosphatase from potato tuber was purified to a final P-Tyr-hydrolyzing specific activity of 1917 units/mg (Gellatly et al, 1994). Only a single peak of activity was recovered following chromatography on columns of S-Sepharose, phosphocellulose and Phenyl Superose (Gellatly et al, 1994). One unit is defined as the μmoles of Pi produced per min at 25° C. The enzyme was purified 2289-fold to a final PEP-hydrolyzing specific activity of 618 units/mg and an overall recovery of 31% (Gellatly et al, 1994). With P-Tyr as substrate the final specific activity was increased to approximately 1900 units/mg (Table 1). This final specific activity was higher than any reported for a purified plant phosphatase (Duff et al, 1994).
# as §2
# as §1, with “enzyme. Hydrolysis was proportional to enzyme concentrations between 0.005 to 0.1 units/mL and remained linear with time for at least 15 min.” for “enzyme.”
# Potato tuber phosphatase was purified by the method of Gellatly et al. (1994).
# [13] = tested on: potato tuber phosphotyrosyl proteins; assay: Dephosphorylation of potato tuber phosphotyrosyl proteins by potato tuber phosphatase; format: biochemical, Solanum tuberosum; settings: + 30 units/mL phosphatase
# Procedure: A desalted potato tuber extract was incubated at 25° C. in the absence (-) and presence (+) of 30 units/mL purified potato tuber phosphatase. Aliquots were removed at 2 and 19 h and analyzed by immunoblotting using anti-(P-Tyr) IgG (Kamps and Sefton, 1988). The relative P-Tyr content of the 7 antigenic polypeptides was estimated by laser densitometric quantification of the immunoblots as described in the examples. Unless otherwise noted, all values represent the means±SE of triplicate determinations. ^a, the mean of duplicate determinations.
# Electroblotting was performed by the method of Moorhead and Plaxton (1990), with the addition of […] o-vanadate to the transfer buffer when maintenance of phosphotyrosyl residues was desired. All immunoblots to be probed with the anti-(black mustard PEP-specific phosphatase) IgG (Duff et al, 1991a) were first pre-treated with sodium m-periodate according to Laine (1988) so as to oxidize antigenic oligosaccharide chains of endogenous tuber glycoproteins. Immunological detection of phosphotyrosylated tuber proteins using anti-(P-Tyr) IgG (Kamps and Sefton, 1988) was performed as referenced above except that the blocking buffer contained 5% (w/v) bovine serum albumin (fraction V) and 1% (w/v) ovalbumin instead of 3% (w/v) defatted milk powder.
# Antigenic polypeptides were visualized using an alkaline-phosphatase-taggedsecondary antibody (Moorhead and Plaxton, 1990). Immunological specificities were confirmed by performing immunoblots in which rabbit preimmune serum was substituted for the affinity-purified IgGs. An LKB Ultroscan XL Enhanced Laser Densitometer was used to scan indicated immunoblots. Densitometric data were analysed using the LKB Gelscan XL software (version 2.1). Immunoreactive polypeptides were quantified in terms of their relative absorbance at 633 nm wavelength (A633).
# Peeled and diced potato tuber tissue (5 g) was homogenized with a Polytron in 1 volume of 100 mM MES-NaOH (pH 5.8) containing 2 mM PMSF, 2 mM DTT, and 1 mM EDTA. The homogenate was centrifuged for 10 min at 13,000 g in an Eppendorf microfuge, and a 3-mL aliquot of the supernatant fluid was passed at 4° C. through a BioRad Econo-Pac 10DG desalting column that had been pre-equilibrated in homogenization buffer lacking PMSF. Aliquots (0.1 mL) of the desalted crude extract were incubated at 25° C. with and without 3 units of the purified potato phosphatase. Samples were removed at 0, 2 and 19 h and analyzed by immunoblotting using the anti-(P-Tyr) IgG as described supra. Laser densitometric scanning and immunoquantification of the blots was performed as described supra.
# [14] = Heat-stability of the phosphatase; format: physicochemical
# Procedure: The phosphatase was relatively heat-stable, losing 0, 52, and 90% of its original activity when incubated for 4 min at 65, 70 and 75° C., respectively.
molecule,measurement,setting,value
"egg yolk storage phosphoprotein, phosvitin (from UniProt P02845)",Relative Activity (%) of potato phosphatase with 0.25 mM PEP,[1],19%
potato tuber phosphatase (PTAP) (enzyme),phosphoprotein phosphatase activity,[2],220 units/mg
"N[C@@H](Cc1ccc(OP(=O)(O)O)cc1)C(=O)O [P-Tyr, o-phospho-L-tyrosine]",Km,[3],> 6 mM
NC(COP(=O)(O)O)C(=O)O (stereo not drawn) [P-Ser],Vmax,potato phosphatase [4],389 units/mg
same,dephosphorylation by the minor 28-kD isoform,[5],inability to catalyze dephosphorylation
potato phosphatase (Solanum tuberosum) (protein) TQFPSVDIPLENEVLSVPNGYNAPQQVHITQGDYDGEAVIISWVTADEPGSSEVRYGLSEGKYDVTVEGTLNNYTFYKYESGYIHQCLITGLQYDTKYYYEIGKGDSARKFWFETPPKVDPDASYKFGIIGDLGQTYNSLSTLQHYMASGAKSVLFVGDLSYADRYQYNDVGVRWDTFGRLVEQSTAYQPWIWSAGNHEIEYFPSMGEVVPFRSFLSRYPTPYRASKSSNPLWYAIRRASAHIIVLSNYSPFGKYTPQWHWLKQEFKKVNREKTPWLIVLMHVPIYNSNAAHFMEGESMRSAYERWFVKYKVDVIFAGHVHAYERSYRISNIHYNVSGGDAYPVPDKAAPIYITVGDGGNSEGLTSRFRDPQPEYSAFREASYGHAILEIKNRTHAYYSWNRNDDGNAITTDSFTLHNQHW,Km,[6],1100 µM
same,Km,[7],1520 µM
same,Km,[8],2160 µM
same,Vmax,[8],368 units/mg
same,Km,[9],0.99 mM
same,Vmax,[9],1917 units/mg
same,Km,[10],620 µM
PTAP: potato tuber acid phosphatase purified from Solanum tuberosum tubers; 57 and 55 kD subunits (protein) TQFPSVDIPLENEVLSVPNGYNAPQQVHITQGDYDGEAVIISWVTADEPGSSEVRYGLSEGKYDVTVEGTLNNYTFYKYESGYIHQCLITGLQYDTKYYYEIGKGDSARKFWFETPPKVDPDASYKFGIIGDLGQTYNSLSTLQHYMASGAKSVLFVGDLSYADRYQYNDVGVRWDTFGRLVEQSTAYGPWIWSAGNHEIEYFPSMGEVVPFRSFLSRYPTPYRASKSSNPLWYAIRRASAHIIVLSNYSPFGKYTPQWHWLKQEFKKVNREKTPWLIVLMHVPIYNSNAAHFMEGESMRSAYERWFVKYKVDVIFAGHVHAYERSYRISNIHYNVSGGDAYPVPDKAAPIYITVGDGGNSEGLTSRFRDPQPEYSAFREASYGHAILEIKNRTHAYYSWNRNDDGNAITTDSFTLHNQHW,pH of maximum activity,potato phosphatase [11],~5.8
same,pH of half-maximal activity,potato phosphatase [11]; listed as potato phosphatase,4.9 and 6.7
same,o-phospho-L-tyrosine (P-Tyr) hydrolyzing specific activity,potato phosphatase [12]; final purified preparation,1917 μmol Pi produced min^-1 mg^-1 of protein
same,PEP-hydrolyzing specific activity,"potato phosphatase [12]; final purified preparation, substrate PEP",618 units/mg
same,p-nitrophenyl phosphate-hydrolyzing specific activity,potato phosphatase [12]; purified PTAP sample used for microprobe analysis,618 units/mg
same,Relative phosphotyrosyl content after incubation at 25° C,"[13]; 20 kD polypeptide, 2h",66 ± 5 % initial value
same,Relative phosphotyrosyl content after incubation at 25° C,"[13]; 20 kD polypeptide, 19h",12 ± 3 % initial value
same,Relative phosphotyrosyl content after incubation at 25° C,"[13]; 34 kD polypeptide, 2h",40 ± 3 % initial value
same,Relative phosphotyrosyl content after incubation at 25° C,"[13]; 34 kD polypeptide, 19h",16 + 2 % initial value
same,Relative phosphotyrosyl content after incubation at 25° C,"[13]; 85 kD polypeptide, 2h",69 ± 2 % initial value
same,Relative phosphotyrosyl content after incubation at 25° C,"[13]; 85 kD polypeptide, 19h",34 ± 2 % initial value
same,Relative phosphotyrosyl content after incubation at 25° C,"[13]; 102 kD polypeptide, 2h",60 ± 5 % initial value
same,Relative phosphotyrosyl content after incubation at 25° C,"[13]; 102 kD polypeptide, 19h",36 ± 3 % initial value
same,Relative phosphotyrosyl content after incubation at 25° C,"[13]; 228.5 kD polypeptide, 2h",65 ± 2 % initial value
same,Relative phosphotyrosyl content after incubation at 25° C,"[13]; 228.5 kD polypeptide, 19h",28 ± 3 % initial value
same,loss of original activity,[14]; incubated 4 min at 65° C,0%
same,loss of original activity,[14]; incubated 4 min at 70° C,52%
same,loss of original activity,[14]; incubated 4 min at 75° C,90%
